Source: paper doi:10.1101/2022.03.02.482667 (bioRxiv, 2022)
Like-named read-outs stand apart in the source and are kept apart here. Blank lines part the entries; values can stand above or below the binder they belong to. Where no end group is shown, it is not given here. Ahx = NCCCCCC(=O)O

Tests used:
[1] = target: T1, His-tagged G3BP1 NTF2 (human, UniProt Q13283 1-139); assay: peptide or protein array
[2] = target: T1, His-tagged G3BP1 NTF2; assay: peptide or protein array; remark: listed apart in the source
[3] = target: G3BP1 NTF2 (1-139) F33/124W (human, UniProt Q13283 1-139, F33W | F124W); assay: fluorescence polarisation
Chain of G3BP1 NTF2 (1-139) F33/124W (Q13283 1-139 F33W/F124W): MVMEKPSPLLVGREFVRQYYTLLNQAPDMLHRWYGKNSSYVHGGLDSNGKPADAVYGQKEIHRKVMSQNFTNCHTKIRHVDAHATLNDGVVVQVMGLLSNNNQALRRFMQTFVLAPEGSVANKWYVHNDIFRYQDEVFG

[4] = target: G3BP1 NTF2 (1-139) F15/33W (human, UniProt Q13283 1-139, F15W | F33W); assay: fluorescence polarisation
Chain of G3BP1 NTF2 (1-139) F15/33W (Q13283 1-139 F15W/F33W): as the sequence (Q13283 1-139 F33W/F124W) above, with F15W, W124F counted along it

[5] = target: G3BP1 NTF2 (1-139) S38A (human, UniProt Q13283 1-139, S38A); assay: fluorescence polarisation
Chain of G3BP1 NTF2 (1-139) S38A (Q13283 1-139 S38A): as the sequence (Q13283 1-139 F33W/F124W) above, with W33F, S38A, W124F counted along it

[6] = target: G3BP1 NTF2 (1-139) S38T (human, UniProt Q13283 1-139, S38T); assay: fluorescence polarisation
Chain of G3BP1 NTF2 (1-139) S38T (Q13283 1-139 S38T): as the sequence (Q13283 1-139 F33W/F124W) above, with W33F, S38T, W124F counted along it

[7] = target: G3BP1 NTF2 (1-139) F15/124W (human, UniProt Q13283 1-139, F15W | F124W); assay: fluorescence polarisation
Chain of G3BP1 NTF2 (1-139) F15/124W (Q13283 1-139 F15W/F124W): as the sequence (Q13283 1-139 F33W/F124W) above, with F15W, W33F counted along it

[8] = target: G3BP1 NTF2 (1-139) S38G (human, UniProt Q13283 1-139, S38G); assay: fluorescence polarisation
Chain of G3BP1 NTF2 (1-139) S38G (Q13283 1-139 S38G): as the sequence (Q13283 1-139 F33W/F124W) above, with W33F, S38G, W124F counted along it

[9] = target: G3BP1 NTF2 domain (residues 1-139) WT (human, UniProt Q13283 1-139); assay: fluorescence polarisation
Chain of G3BP1 NTF2 domain (residues 1-139) WT (Q13283 1-139): as the sequence (Q13283 1-139 F33W/F124W) above, with W33F, W124F counted along it

[10] = target: G3BP1 NTF2 (1-139) F15W (human, UniProt Q13283 1-139, F15W); assay: fluorescence polarisation
Chain of G3BP1 NTF2 (1-139) F15W (Q13283 1-139 F15W): as the sequence (Q13283 1-139 F33W/F124W) above, with F15W, W33F, W124F counted along it

[11] = target: G3BP1 NTF2 (1-139) TripleW (F15W/F33W/F124W) (human, UniProt Q13283 1-139, F15W | F33W | F124W); assay: fluorescence polarisation
Chain of G3BP1 NTF2 (1-139) TripleW (F15W/F33W/F124W) (Q13283 1-139 F15W/F33W/F124W): as the sequence (Q13283 1-139 F33W/F124W) above, with F15W counted along it

T1 sequence (Q13283 1-139): as the sequence (Q13283 1-139 F33W/F124W) above, with W33F, W124F counted along it

binding result [1]: binds
B1: USP10 array peptide F10Y (peptide)
peptide: HSPQYIYGDFSPDEFNQFFV

binding result [2]: binds
B2: Caprin1 array peptide N371Y (peptide)
peptide: QGPYYFIQDSMLDFENQTLD

binding result [1]: binds
B3: USP10 array peptide F13I (peptide)
peptide: HSPQYIFGDISPDEFNQFFV

binding result [1]: binds
B4: USP10 array peptide F10V (peptide)
peptide: HSPQYIVGDFSPDEFNQFFV

binding result [2]: binds
B5: Caprin1 array peptide I373L (peptide)
peptide: QGPYNFLQDSMLDFENQTLD

binding result [2]: binds
B6: Caprin1 array peptide N371D (peptide)
peptide: QGPYDFIQDSMLDFENQTLD

binding result [2]: binds
B7: Caprin1 array peptide N371R (peptide)
peptide: QGPYRFIQDSMLDFENQTLD

binding result [3]: binds | binding result [4]: binds | binding result [5]: binds | binding result [6]: binds | binding result [7]: binds | binding result [8]: binds | Kd [9]: 1.7 µM | Kd [10]: 9.3 µM | binding result [11]: binds
B8: Caprin1-derived dodecamer reporter peptide F*-YNFIQDSMLDFE (peptide)
peptide: {fluorescein-Ahx}-YNFIQDSMLDFE

binding result [2]: binds
B9: native Caprin1 array peptide QGPYNFIQDSMLDFENQTLD (peptide)
peptide: QGPYNFIQDSMLDFENQTLD

binding result [1]: binds
B10: native USP10 array peptide HSPQYIFGDFSPDEFNQFFV (peptide)
peptide: HSPQYIFGDFSPDEFNQFFV

binding result [2]: binds
B11: Caprin1 array peptide N371C (peptide)
peptide: QGPYCFIQDSMLDFENQTLD

binding result [2]: binds
B12: Caprin1 array peptide I373F (peptide)
peptide: QGPYNFFQDSMLDFENQTLD

binding result [2]: binds
B13: Caprin1 array peptide N371W (peptide)
peptide: QGPYWFIQDSMLDFENQTLD

binding result [1]: binds
B14: USP10 array peptide F13V (peptide)
peptide: HSPQYIFGDVSPDEFNQFFV

binding result [2]: binds
B15: Caprin1 array peptide L378I (peptide)
peptide: QGPYNFIQDSMIDFENQTLD

binding result [2]: binds
B16: Caprin1 array peptide S376C (peptide)
peptide: QGPYNFIQDCMLDFENQTLD

binding result [2]: binds
B17: Caprin1 array peptide N371M (peptide)
peptide: QGPYMFIQDSMLDFENQTLD

binding result [1]: binds
B18: USP10 array peptide F13L (peptide)
peptide: HSPQYIFGDLSPDEFNQFFV

binding result [1]: binds
B19: USP10 array peptide F10L (peptide)
peptide: HSPQYILGDFSPDEFNQFFV

binding result [1]: binds
B20: USP10 array peptide F13Y (peptide)
peptide: HSPQYIFGDYSPDEFNQFFV

binding result [1]: binds
B21: USP10 array peptide G11A (peptide)
peptide: HSPQYIFADFSPDEFNQFFV

binding result [2]: binds
B22: Caprin1 array peptide D375E (peptide)
peptide: QGPYNFIQESMLDFENQTLD

binding result [2]: binds
B23: Caprin1 array peptide Y370F (peptide)
peptide: QGPFNFIQDSMLDFENQTLD

binding result [1]: binds
B24: USP10 array peptide F10I (peptide)
peptide: HSPQYIIGDFSPDEFNQFFV

binding result [1]: binds
B25: USP10 array peptide F13W (peptide)
peptide: HSPQYIFGDWSPDEFNQFFV

binding result [2]: binds
B26: Caprin1 array peptide M377Y (peptide)
peptide: QGPYNFIQDSYLDFENQTLD

binding result [2]: binds
B27: Caprin1 array peptide N371E (peptide)
peptide: QGPYEFIQDSMLDFENQTLD

binding result [2]: binds
B28: Caprin1 array peptide N371V (peptide)
peptide: QGPYVFIQDSMLDFENQTLD

binding result [2]: binds
B29: Caprin1 array peptide N371S (peptide)
peptide: QGPYSFIQDSMLDFENQTLD

binding result [2]: binds
B30: Caprin1 array peptide M377F (peptide)
peptide: QGPYNFIQDSFLDFENQTLD

binding result [2]: binds
B31: Caprin1 array peptide N371Q (peptide)
peptide: QGPYQFIQDSMLDFENQTLD

binding result [2]: binds
B32: Caprin1 array peptide N371I (peptide)
peptide: QGPYIFIQDSMLDFENQTLD

binding result [2]: binds
B33: Caprin1 array peptide N371T (peptide)
peptide: QGPYTFIQDSMLDFENQTLD

binding result [2]: binds
B34: Caprin1 array peptide N371H (peptide)
peptide: QGPYHFIQDSMLDFENQTLD

binding result [2]: binds
B35: Caprin1 array peptide N371L (peptide)
peptide: QGPYLFIQDSMLDFENQTLD

binding result [2]: binds
B36: Caprin1 array peptide N371K (peptide)
peptide: QGPYKFIQDSMLDFENQTLD

binding result [2]: binds
B37: Caprin1 array peptide N371F (peptide)
peptide: QGPYFFIQDSMLDFENQTLD
